The text below walks through data of PMC8576073, “Ultra pH‐sensitive detection of total and free prostate‐specific antigen using electrochemical aptasensor based on reduced graphene oxide/gold nanoparticles emphasis on TiO2/carbon quantum dots as a r”.

The series deals with prostate-specific antigen (PSA) (human, UniProt P07288 25-261). In words: electrochemical aptasensor (CV, SWV, EIS); ferrocyanide or TiO2/CQDs redox probe; 30 min binding; detection 0.5-7 ng/ml; LOD is not a Kd; Aptamer electrode washed with 0.1 mol/L PBS pH 7.0; PSA 30 min; 1.0 mM K3/K4[Fe(CN)6] (1:1), or TiO2/CQDs electrolyte at pH 5.4 and pH 8; temperature not stated. Conditions: protein: commercial.
Sequence of prostate-specific antigen (PSA) (P07288 25-261): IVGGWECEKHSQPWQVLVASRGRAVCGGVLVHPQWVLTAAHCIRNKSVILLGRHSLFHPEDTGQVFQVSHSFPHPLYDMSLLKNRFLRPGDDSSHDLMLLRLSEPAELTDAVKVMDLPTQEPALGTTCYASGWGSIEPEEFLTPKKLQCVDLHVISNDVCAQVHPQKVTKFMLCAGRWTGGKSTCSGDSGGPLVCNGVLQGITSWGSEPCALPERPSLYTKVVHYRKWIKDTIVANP

B1: thiolated PSA binding DNA aptamer (ssDNA)
DNA: TTTTTTTTTTATTAAAGCTCGCCATCAAATAGCTGC
modifications: 5'-HS (thiol)
Regarding B1, the binding result was “binds”.
